The results in this text go back to patent US20230159934, “INSULIN RECEPTOR APTAMER AND PHARMACEUTICAL COMPOSITION FOR TREATING DIABETES COMPRISING THE SAME” (APTAMER SCIENCES INC., published 2023).

For orientation: IC50 means the concentration needed to halve the response being measured. Low readings indicate higher potency, high ones lower potency. A word on the EC50: it is the concentration that produces a half-maximal response. The low end stands for greater potency, the high end for weaker potency.

Common to all, as to conditions: chain copies: 2
Data set [1] has as its target T1, Insulin receptor on differentiated 3T3-L1 adipocytes (UniProt P15208;P15208 P15208:28-748,P15208:753-1372). Nature of the data set: cell_activity; lipolysis (glycerol release) inhibition in 3T3-L1 adipocytes; insulin 2.07 nM. Here is the method: To identify the effect of the chemically optimized A48m (A48m combi 2 to 5) on lipolysis inhibition as insulin receptor aptamers, an amount of glycerol released in a lipolysis process was measured by using completely differentiated 3T3-L1 adipocytes.
Particularly, for serum deficiency, the completely differentiated 3T3-L1 adipocytes were treated with DMEM with no FBS for 3 hours and treated with a Krebs-Ringer HEPES buffer solution for 1 hour to induce lipolysis caused by deficiency of glucose. The adipocytes were treated respectively with insulin or the A48m combi 3 aptamer in concentrations of 0.93 nM, 2.59 nM, 7.26 nM, 20.34 nM, 56.94 nM, 159.44 nM, 446.43 nM, 1250 nM, and 3500 nM for 4 hours, and then a buffer used to treat the cells was collected. 20 μl of the collected buffer was added to a 96-well plate and 200 μl of a free glycerol reagent (Sigma F6428) was added thereto, followed by reaction at room temperature for 30 minutes. Then, concentration-dependent color development of glycerol released from the cells was measured by measuring absorbance at 540 nm.

For data set [2], the target named is T1, Insulin receptor on differentiated …. Description: cell_activity; glucose uptake in differentiated 3T3-L1 adipocytes; insulin 9.6 nM. Here is the method:
For serum deficiency, the completely differentiated 3T3-L1 adipocytes were treated with DMEM with no FBS for 3 hours and treated with a Krebs-Ringer HEPES buffer solution for 1 hour. Subsequently, the adipocytes were treated respectively with insulin or the A48m combi 3 aptamer in concentrations of 1.6 nM, 8 nM, 40 nM, 200 nM, and 1000 nM for a given time and then treated with 2-deoxy[14C]glucose (0.1 μCi/ml) for 10 minutes. The resultant was washed three times with PBS supplemented with 20 mM glucose and the cells were dissolved using a solution including 0.5 N NaOH and 1% SDS. An amount of 2-Deoxy-D-glucose absorbed into the cells was observed using a liquid scintillation counter.

The target in data set [3] is T2, Insulin receptor (hIR) expressed on Rat-1/hIR cells (Homo sapiens, UniProt P06213;P06213 P06213:28-758,P06213:763-1382). Description: cell_activity; IR phosphorylation, 200 nM, Rat-1/hIR; Table 5 gives 0.83. Here is the method:
(§1) To identify the insulin receptor phosphorylation activity of the chemical variant samples of A48m prepared in Example 2-1, an experiment was performed as follows. Particularly, Rat-1/hIR cells were seeded on a 12-well plates at a density of 10⁵ cells per well and cultured overnight in a high glucose Dulbecco's modified Eagle's medium (DMEM) supplemented with 10% fetal bovine serum (FBS). The cells untreated with the aptamer samples were incubated in the DMEM not including FBS for 3 hours, washed three times with 1×PBS, and incubated in a Krebs-Ringer HEPES buffer [25 mM HEPES (pH 7.4), 120 mM NaCl, 5 mM KCl, 1.2 mM MgSO₄, 1.3 mM CaCl₂, and 1.3 mM KH₂PO₄] for 1 hour. The aptamer samples, which were the chemical variants of A48m prepared in Example 2-1, were heated at 95° C. for 5 minutes and cooled at room temperature such that a three-dimensional structure of each aptamer was reconstructed. The aptamers were dissolved in the Krebs-Ringer HEPES buffer for preparation.
(§2) The aptamer samples were added to each well of the 12-well plate and incubated for 1 hour. After 1 hour, the plate was washed three times with 1×PBS and the cells were isolated from the plate and lysed with a lysis buffer. The cell lysates were centrifuged at 4° C. at 14,000 rpm for 15 minutes to isolate proteins. […] Intensities of bands formed on the membrane were quantified via comparison with A48m.

Data set [4] addresses T2, Insulin receptor (hIR) expressed on …. Description: cell_activity; IR phosphorylation, 200 nM, Rat-1/hIR; Table 5 gives 0.9. Here is the method: as §1, §2
Data set [5] shares this target. Nature of the data set: cell_activity; IR phosphorylation, 200 nM, Rat-1/hIR. Here is the method: as §1
The aptamer samples were added to each well of the 12-well plate and incubated for 1 hour. After 1 hour, the plate was washed three times with 1×PBS and the cells were isolated from the plate and lysed with a lysis buffer. The cell lysates were centrifuged at 4° C. at 14,000 rpm for 15 minutes to isolate proteins. The isolated samples were heated at 100° C. for 5 minutes with a 5× sample buffer and slowly cooled at room temperature to prepare western blot samples. The prepared samples were subjected to electrophoresis on 4%-12% SDS-PAGE for 1 hour and 30 minutes and transferred to a nitrocellulose membrane for 1 hour and 30 minutes. Then, the membrane was blocked at room temperature for 40 minutes in a blocking buffer solution (1×PBST, 3% skim milk) and incubated for 1 hour at room temperature with a primary antibody [anti-phosphor-IR (10C3), Santa Cruz Biotechnology or anti-β-actin (D6A8), Cell Signaling Technology] diluted in a blocking buffer at 1:500 or 1:1000. The membrane was washed three times with 1×PBS and incubated for 1 hour at room temperature with a secondary binding antibody diluted in the blocking buffer at 1:20000, and washed three times with 1×PBST. An ECL solution was sprayed onto the membrane, followed by incubation at room temperature for 1 minute and exposure to x-rays. Intensities of bands formed on the membrane were quantified via comparison with A48m.

For data set [6] the target is unchanged. Nature of the data set: cell_activity; IR phosphorylation reference, 200 nM, Rat-1/hIR. The procedure: as §1, §2
For data set [7] the target is unchanged. Nature of the data set: cell_activity; IR phosphorylation, 200 nM, Rat-1/hIR; Table 5 gives 0.77. Here is the method:
as §1, §2

The target is the same in data set [8]. Nature of the data set: cell_activity; IR phosphorylation, 200 nM, Rat-1/hIR; Table 5 gives 0.95. Here is the method:
as §1, §2

T2 sequence (P06213 28-758, chain 1 of 2): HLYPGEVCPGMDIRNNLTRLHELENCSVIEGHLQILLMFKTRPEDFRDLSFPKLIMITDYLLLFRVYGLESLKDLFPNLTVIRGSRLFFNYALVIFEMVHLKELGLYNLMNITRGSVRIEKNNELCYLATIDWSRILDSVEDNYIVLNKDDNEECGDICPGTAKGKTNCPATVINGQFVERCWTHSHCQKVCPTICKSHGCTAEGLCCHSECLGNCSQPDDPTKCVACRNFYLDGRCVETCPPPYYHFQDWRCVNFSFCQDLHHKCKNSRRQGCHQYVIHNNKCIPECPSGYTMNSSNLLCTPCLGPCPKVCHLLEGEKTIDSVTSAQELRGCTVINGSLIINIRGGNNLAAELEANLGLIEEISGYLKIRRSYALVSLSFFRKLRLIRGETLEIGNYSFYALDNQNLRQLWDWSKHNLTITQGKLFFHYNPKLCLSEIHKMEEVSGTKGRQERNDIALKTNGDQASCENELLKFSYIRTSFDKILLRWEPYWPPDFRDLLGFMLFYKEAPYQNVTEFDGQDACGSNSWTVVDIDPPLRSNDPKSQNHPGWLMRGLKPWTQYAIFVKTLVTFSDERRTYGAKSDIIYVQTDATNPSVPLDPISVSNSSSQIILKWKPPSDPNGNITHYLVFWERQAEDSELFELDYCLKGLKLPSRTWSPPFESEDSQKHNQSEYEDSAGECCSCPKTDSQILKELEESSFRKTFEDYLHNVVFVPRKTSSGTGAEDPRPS
T2 sequence (P06213 763-1382, chain 2 of 2): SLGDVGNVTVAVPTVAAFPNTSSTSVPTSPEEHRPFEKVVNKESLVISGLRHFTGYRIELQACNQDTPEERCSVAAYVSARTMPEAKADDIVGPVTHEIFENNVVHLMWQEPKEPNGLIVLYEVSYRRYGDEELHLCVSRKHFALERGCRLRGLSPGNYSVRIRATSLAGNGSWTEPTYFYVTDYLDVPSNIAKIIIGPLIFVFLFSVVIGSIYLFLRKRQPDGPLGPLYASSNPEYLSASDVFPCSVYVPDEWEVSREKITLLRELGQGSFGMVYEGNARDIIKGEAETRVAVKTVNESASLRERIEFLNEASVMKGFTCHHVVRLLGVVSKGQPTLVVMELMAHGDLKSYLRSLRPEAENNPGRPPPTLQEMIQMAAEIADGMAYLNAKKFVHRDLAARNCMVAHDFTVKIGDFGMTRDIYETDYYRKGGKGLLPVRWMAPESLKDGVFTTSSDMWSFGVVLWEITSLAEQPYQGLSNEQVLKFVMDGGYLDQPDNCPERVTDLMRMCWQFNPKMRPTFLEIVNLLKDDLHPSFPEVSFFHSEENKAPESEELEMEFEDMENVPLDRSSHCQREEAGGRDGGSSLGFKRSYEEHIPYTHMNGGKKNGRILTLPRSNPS
T1 sequence (P15208 28-748, chain 1 of 2): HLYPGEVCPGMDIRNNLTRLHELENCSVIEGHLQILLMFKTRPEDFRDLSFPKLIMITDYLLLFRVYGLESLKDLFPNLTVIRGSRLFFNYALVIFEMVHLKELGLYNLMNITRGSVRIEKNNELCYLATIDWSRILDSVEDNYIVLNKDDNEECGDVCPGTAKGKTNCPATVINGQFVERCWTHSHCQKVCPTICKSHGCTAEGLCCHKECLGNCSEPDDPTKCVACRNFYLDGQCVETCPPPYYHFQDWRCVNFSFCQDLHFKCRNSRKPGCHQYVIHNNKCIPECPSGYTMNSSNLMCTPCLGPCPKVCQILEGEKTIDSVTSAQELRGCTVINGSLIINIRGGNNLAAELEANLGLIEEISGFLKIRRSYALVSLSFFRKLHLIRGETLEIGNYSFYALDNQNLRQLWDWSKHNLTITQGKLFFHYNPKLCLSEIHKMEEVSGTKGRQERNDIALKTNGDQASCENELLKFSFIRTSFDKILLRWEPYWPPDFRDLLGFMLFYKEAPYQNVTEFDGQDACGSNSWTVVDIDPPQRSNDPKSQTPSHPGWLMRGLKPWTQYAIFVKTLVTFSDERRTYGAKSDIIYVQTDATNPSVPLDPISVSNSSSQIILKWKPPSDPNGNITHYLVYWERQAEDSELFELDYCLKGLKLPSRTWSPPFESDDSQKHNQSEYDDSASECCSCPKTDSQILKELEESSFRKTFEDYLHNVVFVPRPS
T1 sequence (P15208 753-1372, chain 2 of 2): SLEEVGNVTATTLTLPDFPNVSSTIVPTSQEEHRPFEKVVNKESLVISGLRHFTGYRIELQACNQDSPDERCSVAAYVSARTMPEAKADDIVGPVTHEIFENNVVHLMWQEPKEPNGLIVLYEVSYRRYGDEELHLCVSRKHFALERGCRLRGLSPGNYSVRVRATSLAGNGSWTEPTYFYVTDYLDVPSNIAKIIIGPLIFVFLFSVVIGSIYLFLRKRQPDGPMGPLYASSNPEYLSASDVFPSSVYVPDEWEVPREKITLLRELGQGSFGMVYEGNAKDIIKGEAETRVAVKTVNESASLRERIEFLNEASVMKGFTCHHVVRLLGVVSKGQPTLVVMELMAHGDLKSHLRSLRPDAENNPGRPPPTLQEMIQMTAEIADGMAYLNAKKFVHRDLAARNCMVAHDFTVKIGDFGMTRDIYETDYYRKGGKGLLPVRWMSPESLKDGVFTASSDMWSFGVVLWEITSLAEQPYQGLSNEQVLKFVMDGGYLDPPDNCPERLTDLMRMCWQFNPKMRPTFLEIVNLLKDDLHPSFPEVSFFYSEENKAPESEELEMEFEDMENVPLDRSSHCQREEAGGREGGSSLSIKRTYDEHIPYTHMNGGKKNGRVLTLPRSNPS

B1: A48m combi 3 (ssDNA)
DNA: CCUGGTGTTTAGACGACCTATAGGTTAGG
modifications: CmeCmeUmeGGPGZPLPAmeGAmeCfGAmeCfCmePAmePAGGmePPAmeGmeGme-idT; me = 2'-OMe, f = 2'-F, P = naphthyl-dU, Z = benzyl-dU, L = C3 linker, 3' idT [2'-OMe at 1,2,3,11,13,16,18,20,24,27,28,29; 2'-F at 14,17; naphthyl-dU at 6,9,10,19,21,25,26; benzyl-dU at 8; C3 linker (left out) between 9 and 10; 3' idT (left out) after 29]
With B1, in data set [1], 11 nM corresponded to half-maximal inhibition (IC50). Further, the EC50 in data set [2] was found to be 16.5 nM.

As to CGCCTGGTGTTCTAGACGACCTATAGGTTAGGC (ssDNA, P = naphthyl-dU; benzyl-dU at position 10) [A48m P10Z], the activity in data set [3] is 2.7 fold of A48m.

Consider CGCCTGGTGTTCTAGACGACCTATAGGTTAGGC (ssDNA, P = naphthyl-dU; benzyl-dU at position 13) [A48m P13Z], for which the activity in data set [4] was 1 fold of A48m.

With CGCCTGGTGTTCTAGACGACCTATAGGTTAGGC (ssDNA, P = naphthyl-dU; 2'-F at position 27) [A48m G27 2'-F], the activity in data set [5] was 1.11 fold of A48m.

Turning to CGCCTGGTGTTCTAGACGACCTATAGGTTAGGC (ssDNA, P (n) = naphthyl-dU) [A48m (A48 seq 1-19)], the activity in data set [6] was 1 fold of A48m.

Consider CGCCTGGTGTTCTAGACGACCTATAGGTTAGGC (ssDNA, P = naphthyl-dU; benzyl-dU at position 29) [A48m P29Z], for which the activity in data set [7] was 0.9 fold of A48m.

For the molecule CGCCTGGTGTTCTAGACGACCTATAGGTTAGGC (ssDNA, P = naphthyl-dU; 2'-OMe at position 2) [A48m G2 2'-OMe], the activity in data set [5] was 1.28 fold of A48m.

As for CGCCTGGTGTTCTAGACGACCTATAGGTTAGGC (ssDNA, P = naphthyl-dU; benzyl-dU at position 28) [A48m P28Z], in data set [8], the activity was 1.09 fold of A48m.

Turning to CGCCTGGTGTTCTAGACGACCTATAGGTTAGGC (ssDNA, P = naphthyl-dU; C3 linker at position 12) [A48m C12 C3-linker], in data set [5], the activity was 1.7 fold of A48m.

With CGCCTGGTGTTCTAGACGACCTATAGGTTAGGC (ssDNA, P = naphthyl-dU; C3 linker at position 18) [A48m G18 C3-linker], the activity in data set [5] is 1.16 fold of A48m.
